These results are taken from publication PMC2575619, “Novel splice variants derived from the receptor tyrosine kinase superfamily are potential therapeutics for rheumatoid arthritis” (Arthritis Research & Therapy, 2008).

One assay has as its target angiopoietin-1 (UniProt Q15389). The experiment in a line: ELISA; Ang-1 coated on 96-well plates at 4 μg/ml in PBS; purified Tie1-751(6His) applied, 1.5 hours at room temperature, three rinses in PBS/0.05% Tween-20; detected with biotin-labeled extracellular domain-specific antibody.
For assay [1], the target named is T1, recombinant human VEGFR3/Fc chimera (human, UniProt P35916 25-775).
T1 construct: Human VEGF receptor type 3, the soluble part fused to Fc; Commercial chimera, probably the extracellular domain on human IgG1 Fc; also called soluble VEGFR3/Fc chimera; source: bought: R&D Systems
T1 sequence (looked up): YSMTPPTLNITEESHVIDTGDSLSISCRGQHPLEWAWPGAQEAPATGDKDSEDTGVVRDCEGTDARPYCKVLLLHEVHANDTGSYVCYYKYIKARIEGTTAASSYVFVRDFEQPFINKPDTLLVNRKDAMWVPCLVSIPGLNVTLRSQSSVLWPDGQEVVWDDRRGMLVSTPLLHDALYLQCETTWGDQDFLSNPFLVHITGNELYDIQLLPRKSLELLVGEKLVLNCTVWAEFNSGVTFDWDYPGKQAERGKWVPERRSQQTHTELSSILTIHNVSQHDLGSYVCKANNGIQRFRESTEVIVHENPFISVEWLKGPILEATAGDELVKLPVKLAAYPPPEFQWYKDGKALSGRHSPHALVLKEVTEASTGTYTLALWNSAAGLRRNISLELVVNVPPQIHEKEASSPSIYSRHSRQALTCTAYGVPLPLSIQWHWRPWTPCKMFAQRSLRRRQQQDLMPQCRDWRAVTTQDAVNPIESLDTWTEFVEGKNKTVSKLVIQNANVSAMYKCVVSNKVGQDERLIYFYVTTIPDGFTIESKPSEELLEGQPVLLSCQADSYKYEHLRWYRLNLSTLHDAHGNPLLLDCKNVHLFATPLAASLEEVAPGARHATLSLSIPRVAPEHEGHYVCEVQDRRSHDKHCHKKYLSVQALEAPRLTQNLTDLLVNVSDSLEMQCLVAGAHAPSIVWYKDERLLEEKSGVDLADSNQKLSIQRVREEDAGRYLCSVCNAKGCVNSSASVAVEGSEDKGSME
The experiment in a line: co-IP; competition in the solution binding of VEGF-D to VEGFR3-765-Myc: fivefold molar excess of recombinant human VEGFR3/Fc or VEGFR1/Fc chimera; immunoprecipitation with anti-VEGF-D, blot with anti-Myc. The following applies: both partners purified.

angiopoietin-1, sequence (Q15389 16-498): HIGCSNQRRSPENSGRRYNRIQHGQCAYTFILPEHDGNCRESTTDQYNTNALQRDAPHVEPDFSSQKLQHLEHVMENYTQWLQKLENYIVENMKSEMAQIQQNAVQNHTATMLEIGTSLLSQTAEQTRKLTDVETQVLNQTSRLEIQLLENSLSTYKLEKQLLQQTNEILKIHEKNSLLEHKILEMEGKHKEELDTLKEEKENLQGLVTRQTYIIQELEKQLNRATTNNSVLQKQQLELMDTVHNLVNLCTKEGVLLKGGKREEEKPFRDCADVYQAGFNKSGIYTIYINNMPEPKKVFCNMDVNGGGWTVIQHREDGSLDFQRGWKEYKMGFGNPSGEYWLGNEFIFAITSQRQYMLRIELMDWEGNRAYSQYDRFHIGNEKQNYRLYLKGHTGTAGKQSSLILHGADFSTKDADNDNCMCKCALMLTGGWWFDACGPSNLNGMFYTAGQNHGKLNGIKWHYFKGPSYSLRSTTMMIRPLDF

Consider “Tie1-751(6His) (from UniProt P35590-1 22-740) (receptor)”, for which the Kd (usually the free concentration of one partner at which half of the binding sites on the other are occupied at equilibrium, for simple one-to-one binding) in the assay with angiopoietin-1 was determined as 89 nM.

B1: VEGF-D (ligand, human, UniProt O43915 89-205, looked up)
chain: FAATFYDIETLKVIDEEWQRTQCSPRETCVEVASELGKSTNTFFKPPCVNVFRCGGCCNEESLICMNTSTSYISKQLFEISVPLTSVPELVPVKVANHTGCKCLPTAPRHPYSIIRR
notes: Human VEGF-D, bought recombinant protein; source: bought: R&D Systems
Take B1: the binding result in assay [1] is “binds”.
